{
  "source": "paper PMC6939381",
  "target": "CohE-CBM(C63S)-ybbR (Ruminococcus flavefaciens)",
  "test": "ITC",
  "data": [
    {"substance": "ybbR-CBM(C63S)-ScaB-XDoc (domain or fragment)", "values": [
      {"measurement": "Kd", "value": 149, "unit": "nM"}
    ]}
  ]
}
